Data: US20040228866A1, “Suppressor genes” (Ludwig Institute for Cancer Research, priority 2000, published 2004)

Target: T1, p53 (Homo sapiens, UniProt P04637)
T1 construct: expressed in transfected cells
Experiment: Co-immunoprecipitation with p53 in transfected Saos-2 cells
Format: binding
Protocol: The cells were lysed in NP40 lysis buffer and 1000 μg of lysate immunoprecipitated with antibodies to iASPP bound to Protein G beads.

T1 sequence (P04637 whole entry): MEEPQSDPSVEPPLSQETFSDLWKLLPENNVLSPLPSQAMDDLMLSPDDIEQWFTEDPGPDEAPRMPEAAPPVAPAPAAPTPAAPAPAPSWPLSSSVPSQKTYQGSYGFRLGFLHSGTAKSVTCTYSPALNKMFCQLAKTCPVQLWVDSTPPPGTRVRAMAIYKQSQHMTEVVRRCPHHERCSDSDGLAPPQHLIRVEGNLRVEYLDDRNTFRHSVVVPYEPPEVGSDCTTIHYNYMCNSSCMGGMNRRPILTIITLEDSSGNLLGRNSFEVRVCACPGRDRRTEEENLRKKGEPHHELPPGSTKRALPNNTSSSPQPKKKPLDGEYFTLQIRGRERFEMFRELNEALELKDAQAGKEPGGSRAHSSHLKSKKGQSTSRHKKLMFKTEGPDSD

B1: ASPP2: full length 1128 amino acid protein, SEQ ID NO: 4 (protein, listed as Homo sapiens)
chain: MMPMFLTVYLSNNEQHFTEVPVTPETICRDVVDLCKEPGESDCHLAEVWCGSERPVADNERMFDVLQRFGSQRNEVRFFLRHERPPGRDIVSGPRSQDPSLKRNGVKVPGEYRRKENGVNSPRMDLTLAELQEMASRQQQQIEAQQQLLATKEQRLKFLKQQDQRQQQQVAEQEKLKRLKEIAENQEAKLKKVRALKGHVEQKRLSNGKLVEEIEQMNNLFQQKQRELVLAVSKVEELTRQLEMLKNGRIDSHHDNQSAVAELDRLYKELQLRNKLNQEQNAKLQQQRECLNKRNSEVAVMDKRVNELRDRLWKKKAALQQKENLPVSSDGNLPQQAASAPSRVAAVGPYIQSSTMPRMPSRPELLVKPALPDGSLVIQASEGPMKIQTLPNMRSGAASQTKGSKIHPVGPDWSPSNADLFPSQGSASVPQSTGNALDQVDDGEVPLREKEKKVRPFSMFDAVDQSNAPPSFGTLRKNQSSEDILRDAQVANKNVAKVPPPVPTKPKQINLPYFGQTNQPPSDIKPDGSSQQLSTVVPSMGTKPKPAGQQPRVLLSPSIPSVGQDQTLSPGSKQESPPAAAVRPFTPQPSKDTLLPPFRKPQTVAASSIYSMYTQQQAPGKNFQQAVQSALTKTHTRGPHFSSVYGKPVIAAAQNQQQHPENIYSNSQGKPGSPEPETEPVSSVQENHENERIPRPLSPTKLLPFLSNPYRNQSDADLEALRKKLSNAPRPLKKRSSITEPEGPNGPNIQKLLYQRTTIAAMETISVPSYPSKSASVTASSESPVEIQNPYLHVEPEKEVVSLVPESLSPEDVGNASTENSDMPAPSPGLDYEPEGVPDNSPNLQNNPEEPNPEAPHVLDVYLEEYPPYPPPPYPSGEPEGPGEDSVSMRPPEITGQVSLPPGKRTNLRKTGSERIAHGMRVKFNPLALLLDSSLEGEFDLVQRIIYEVDDPSLPNDEGITALHNAVCAGHTEIVKFLVQFGVNVNAADSDGWTPLHCAASCNNVQVCKFLVESGAAVFAMTYSDMQTAADKCEEMEEGYTQCSQFLYGVQEKMGIMNKGVIYALWDYEPQNDDELPMKEGDCMTIIHREDEDEIEWWWARLNDKEGYVPRNLLGLYPRIKPRQRSLA
- interaction with p53 by immunoprecipitation and western blot: interact in vivo
